Test: label from the status in PepcDB records
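Note: failed if final PepcDB status was selected cloned or expressed and not failed if soluble or beyond.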

In the case of “MTAPGSMPLTVIGGFLGAGKTTLLNYLLKVQHSERVLVMVNDFGSINIDAELLDQGRHDRPGVVRLQNGCVCCSIGGDLMQAFLQVMSMPDRPDRIIVEASGVADPTRIAQIGRVSGGLSDEGVITLVDASAVRTLAADKYVGDIVRQQILSADIVLLNKLDLSSDAEIVETRAWLRDLAPRTRVVSCIHGEVDAVSVLGIGAGKVAPDAAGGPVDVPVPDLRRASTRHADTFHSSTLATAHRFDRRRIEYALDALPQTVLRGKGFVELEGEATPALLQLCGSRWTLDPVSTPAPPAGTHLVFIATGGRGVPRFDAPSHFEQALASRDAASADTSNLEHHHHHH”, the protein production is reported as “not failed”.

With “MILSQQKYNYLAKVSDSNGVISALAFDQRGALKCLMAQYQMKEPTVAQMEELKVLVSEELTPYASSILLDPEYGLPAAQARDREAGLLLAYEKTGYDANTTSRLPDCLVDWSIKRLKEAGADAVKFLLYYDVDGDPQVNVQKQAYIERIGSECQAEDIPFFLEILTYDETISNNSSVEFAKVKVHKVNDAMKVFSAERFGIDVLKVEVPVNMVYVEGFAEGEVVYSKEEAAQAFREQEASTDLPYIYLSAGVSAELFQETLVFAHKAGAKFNGVLCGRATWAGSVQVYMEEGKEAARQWLRTSGLQNINELNKVLKTTASPWTEKVSVG” the protein production was “not failed”.

With “MKNKQSKSLLIKSMALTGLFTISACANEELADTLLTNTNIYGHNNATSLAIKDGKIVYIGDEQNAMNHVSNKTQVIDLKGGYLLPGFVDNHNHVFEAASEIGSDCLLDEDKDINGYIRSLRACKEELEEGEWLLGYGHELSQLMQDNDTSPLAILDEIFPNNPVIIMEQTSHSMWVNSLALAEAGITIHSKEPQGGKILKDKTTGKLLGILLDNAGDLLMEQAWKNQPNLAEANYQGLLNGLAQASKHGITTIGDGRLYWKRGWLETWLTAEKNQALTARVSLRPWVYPADEANEQLAFFKKIKSNDKQRLIQINQVKIYSDGIIINGTASTLDPYDWSYTPQIPHGLEYIPATKMAWWLSELNKIGYGAHIHAIGDAGVRNTLNAIETLRAQGATTAYSMTHLEMVSAQDIKRFAPLRVDADFQLGSDYIAEQDHDWAIPFIGKQRAHALLPINAILNTGANVTLSSDWNVNDINPLVGIANAVYLKNMGIADIHQAIAAYTINPAQALGLDDITGTLEVGKSADIVMLERDITQSTPKQIANTRVLMTWLEGEVVYDEQTE” the protein production was “failed”.

With “MSDDLALTALAASSFSLPELREGQLAGMTALVERRDVLAVMPTGYGKSATYQVAALYLHNKTGRPAVVVSPLIALQEDQLDGLAEHLGEGAGVAINSSRSDAEVEAAWQAVESGQAAFLFLAPEQLSKRETVERIANLDITMFVVDEAHCVSSWGHDFRPDYLELGHVREHLGNPPVIALTATASPPVRDEIVKRLGMTEPVVLVRGFDRPNISLDVVRHQEDKGKRKAVMEQVVALAKAEGLGLLYAATRKATEKYAAKLTEHGLRAEAYHAGRADSDRESIHERFLDDQLDVVVATTAFGMGIDKPNVRFVVHADIPESLDSYYQEIGRAGRDGEPATAILHYRAEDLGLRKFFATHSPDAEALTAVLKVIKNAGAPVPKTALVELTGFPARRVTALVNQLEEAGAVTTGKRGTRLSSKAKLTTLVDRAVELAEARQRVDQSRLTMMRAYAETDACRRQFLLGYFGEDLPEPCGNCDACAEIHDDAGSGSAGHLTSTAENLFPLQSTVIHKEWGPGLVMRHEDDVMTVLFEQEGYKTLSRAAVVEHELLKPA” the protein production was “failed”.

With “MKNLIFIATTFITTISLTNIAQAANQEHIRQLLATKQCQNCDLSGAGLVMADLTGANLSGANLAGANLSRANLSGADLRGANLSGAGLFGVNLSEAKLGGANLAGADLRSTFLSNAEFTGAYLQGTNFQGALGIPLQIATPDEFYALGVAEAQKGNQQQAINYFNQAIASKPEYAGAYLARGIARYQLFDRQGAAQDAQTAEKLFTSQDNATGIQTAQAFIKELQTPYTEKLSAGKPSFFDFLGSLGSVLLQFLPF” the protein production was “failed”.

In the case of “MDIQGLLERLKPFIIIVLLFSVVFYIRAEASNIGGVPADAKKFYEDADGLPYFSEMDSYYNYRLTMNYLTKGIMGDTLVDGKPYDLHSYYPPGRPVDYPPLIVYVTSAAYRVLNFFGDFSLKEVAFWMGAFIGSLCVIPAYLFVRRITNDYGGFAAALIVGLVPTYVAHTYAGFFDTDMFNFVLPLFVFWFFTEGMLASSMRGKVGYALAAAVSILVFSAAWVGYIFYLAVLIVFVAAYLVISRYILGEKPAGEFEGKLDWLIHQRELFPLLILIIAGGVLVGVFGGFSSLAGAVGGLIGATQIQATAQTTAYPNVYVSVSELQVPEFITTGAGNIFLPGQNTIVGGVGGLLVFIIGVLGVGALVWKYRQPEVVVEESENRPRAGKKSKFMRKKRAAVASEEMRHRYLLYAVLMAVWLIMSGYAVTKGSRFIPTFAMPLGLSAGIFTGFLVEYLRVRFTTTSSLALIVFVAAVAMVMPFGVSVAVKLLAGVLAAGFIYSVKKPEIRAPFMMVLVVLAAVAPSVSGAHSITTSVAPGTDDGMWNSMQWVKKNTSRDTVVMSWWDFGHLFAVAADRPVTFDGGSQNTPRAYWIGKALTTSNETLSRGILTMLSTSGDLAYETLDNYTDDSGKTAEILTATLGLPREEARAVMTGRYGLSDKEADSVLRYSHPAKPKPFVLVLSSDMLGKAPWWTYFGTWDFKKKTGSRYGYYPSLASSKPQVVNNTTVIQTVNTMVDQNNVLGTIIEKKANTTNATIAVGNNMTVQKINPHRLTIIEGDLLVKNEVVDSDAQLSLIVIGSGNQYTTIIMNRELEDSVFTKLFLLGGFNQTSFKFLHQEPGVLLWTAA”, the protein production is reported as “failed”.

With “MNEYFFPKLTAVEALAPYRLRTTWSTGEVLEVDVGDILRKIPDLAPILDPEAFARVHIAEWEGSVEWFDTEFGRDNVYAWAKEQAGEVSHEMFGDWMHRNNLSLTTAAEALGISRRMVSYYRTAHKIIPRTIWLACLGWEATRPETKTLPRTLPAAYAKGVSASLS” the protein production was “not failed”.

In the case of “MSTSMPTALAGGRYQLGQLIGRGGMAEVHVALDTRLGRTVAVKIMRADLANDDIFLARFRREAHAVAQMNNPNIVNIYDSGEELVSSESGDTERLPYIVMEYVKGQTLRDIIKVNGALSQRDCEQVLLGVLNALDYSHRMGIIHRDIKPGNIMISEQGVVKVMDFGIARALDDSAATMTQSQGVVGTAQYLSPEQARGETVDMRSDLYSAGCVLYEMLTGRPPFTGDSAVAIAYQHVSEVATPPSAVVPGLPKMWDSICAKAMAKDRQNRYATASEFKTDILTYMNGGVPVAAAFNPLTDLSNMKARKEAERDLPTTPVEPQQQPTQAFNPVTGQFEQIPPANGANSAALQSRAQQRAAAAKAKKRKKIIIGSVIAVLAVALVGAGVVFAMSGAPNKSAEDKVTIPEVCNASTSKDNIKLKLETLGLTMVGKQDTDSTEPEGTCTKMSPEAGAKVAKGSKVKVWFSAGPQSTQVPDVKERSQEEARSILESAGFKVNATVRTEDSADIAKDMVTKTDPAAGQSVPKGTTITIYVSSGMTTVPSNLVGQSKDSVLQQYEGRFSFTVEQESSDTVEAGLITRVSPDSGSSIAQGGSITIWVSTGKEKVAVPNIAAGTKYATAELMLKAVGLKAQANGPADPTAVVVGIDPGAGAQVDVGSTVTITTKAAVTGDNNGNGNGNAGGSSSTGGTGPGGDK”, the protein production is reported as “failed”.

In the case of “MPVAVVANPKGGVGKTTLATNLAGYFAARDHAVMLGDTDRQQSSREWLALRPATARPIHTWDISADHIAKPPKGTTHVVLDTPAGLHGWRLADLIRLAGHVIVPLQPSMFDILATQAFLCKLADEKPVRHGEAKVGVVGMRVDMRTRAAEQLQRFVQGLQIPILGYLRDTQNYVQLAAHGLTLWDVAPSRVARDVEQWRGILDWMAPGGITASPDSM”, the protein production is reported as “failed”.

With “MNGGTFTTGKEKERAGIYFNFKTTAQERVSLSERGTVALPVASSWGEAKTFVSISSVEDLNKKVGLSIDDPSLLLLREAKKNAKTVLMYRLTEGVRASADIAEGVKATAVYGGTKGNDIIIRINQNVLDANSFDVTTYMDESEVDKQTVKKAEELTANGYVTFTGTGDLSSTIPLTGSEGDTAAETLNASAGIRLSGGTDKAPVNSDYTDFLAAAETESFDVIALPVAEGDQLKATFAAFIKRLRDGQGQKVQGVTANYAGDYEGIINVTEGVLLEDGTEVTPDKATAWVAGASAGATFNQSLTFVEYEGAVDVLHRLDHDTIVERLGKGEFLFTFDARDKSVSVEKDINSLVTFTAEKNKKFAKNKIVRVLDAVNNDLTRELKALIKSRKGSGSDIPASEDGLQYVKTMITQYMTTLQDAGGITGFDSDEDITISMNEDRDGFLIDLLYSLSTQQKNSTLMWRLEHHHHHH” the protein production was “not failed”.

For “MSLTEKFRPTLKDVARQAGVSIATASRALADNPAVAASTRERIQQLASDLGYRANAQARALRSSRSNTIGVIVPSLINHYFAAMVTEIQSTASKAGLATIITNSNEDATTMSGSLEFLTSHGVDGIICVPNEECANQLEDLQKQGMPVVLVDRELPGDSTIPTATSNPQPGIAAAVELLAHNNALPIGYLSGPMDTSTGRERLEDFKAACANSKIGEQLVFLGGYEQSVGFEGATKLLDQGAKTLFAGDSMMTIGVIEACHKAGLVIGKDVSVIGFDTHPLFALQPHPLTVIDQNVEQLAQRAVSILTELIAGTVPSVTKTTIPTALIHRESIINSTLRKEGHHHHHH”, the protein production was “not failed”.

With “MIEIKNVNKVFYQGSKEILALKDINLHIAKGTIFGVIGSSGAGKSTLIRCVNMLEAPSSGSIIVDGVDLTTLSKKQLVETRRNIGMIFQHFNLLSSRTVFDNVALPLELAGKDKSQITTKVTELLKLVGLADKHESYPSNLSGGQKQRVAIARALASDPSVLLCDEATSALDPATTQSILELLKEINRKLNITILLITHEMEVVKSICHEVAIIGGGELVEKGTVGDIFAHPKTELAHEFIRSTLDLSIPEDYQARLQPNRVEGSYPLVRMEFTGATVDAPLMSQISRKYNIDVSILSSDLDYAGGVKFGMMVAELFGNEQDDSAAIEYLREHNVKVEVLGYVL” the protein production was “not failed”.

With “MPMDFQILDADYEVVNDSGPVIRLFGRGADGKSVCCFVPDFEPYFYLKASGDLHAVARLIKDTFEQVKKVEIVEKFEPVGYQKTKKEMLRVTTRLPKDVPEIRDEILKIRDVLRAEGDWQVYESDILFRNRFLIDRALGGMVWVSAEGKPVDPVRYLGAGSAWRSRCENFACDSAVLASGLKRVENLAIAPLKYLAFDIECLPLDGGMPSPDVSPIIMISFSFEPEYKGHKTLILLAKPAAGMDGDVLSCMDETEMLNKFFEIICEYDPDIVAGYNHQDFDIPYITERVKALVAKGETINSVVGRDGSPIGYRKFGLITRTEMKGRVVVDALPLVRRAFSLKQYTLRAVSKELLSREKLDVPPLEMEEHWNDSGDKFRKFVDYARRDSELALELVLELRLLDKYIALAQVSGSLLQEIVDGGQTSMVETLLLREFGLKDRVILPKPGDELSAERYDMSSDLKGGEVLEPKKGLLENVLILDYKSLYPTIMMAHNLCYTTVVTRDRPDGKTIKPPSGGEFVPPEVFRGIVPSILEDLLNKRGDTKKRMKRTSDENEHRVLDATQLAIKILLNSFYGYSGYARARLYSLTLANAVTSFGRSNILNTRDLINGRIGKIVLRNSAALLLEEAGKLSPQDRIVELSVAYGDTDSVFVHCKAKGDLSLEEVSLVGNRLSEIVSASLPDPMELEFESVAKRALLIAKKRYALWLFEPRNSGWENKIKVKGMETVRRDWCELTSITLNRVLEFVLIEGDVDKAVEHVRKVVSDVRNLDPGKDAGIIEKLVLTRTLTRKADSYKNKQPHLTVAENLKKRTGIMPSIGTRIPFVITAGKGLFVDRAEDPDYVRENNVPIDVDYYVKKQILPPVERILEVFGVKMSSLDFDAKQKGLFDFEVKKPEAKKQEKSSSQKGTNGKILEKAPEEKARYSENGRVEQRSLFDF” the protein production was “failed”.

With “MIRPTVQENFSRYADCIAACNAAAAACLKCAAACLEEPDTRKMTRCIALDMDCAGIANLAASYMLRNSEFAPLVCEDCAEVCKWCKEECERYDHWHCQECAKACAACMEMCLKMTA” the protein production was “failed”.

With “KREHFRDDYLYRFYQYGDTHSKIPSNLYKVLARKLDMISASENINDLRSPPANHLELLEPKENKIYSIRVNKQYCLIFKYENNEVNNLYLDPH” the protein production was “failed”.

For “AHKYKRAEVVQNALLELSHIATQVSSLEEFYLGVHHHLKQLISADNFFIATLDVNSGAISVPFFADEKDAHPSQLYPEQSLSTLLQQGLTGYVFRTGQTLLCDESKVDELVNAEEIVNLGSPCHLWLGVPIKHEDIVTAVLVVQTYDTNVSYGDIEVELMTFICHHITGVMERLKHQEQLEQAIQQ”, the protein production was “not failed”.

From a protein production outcome set (Wang et al. 2014)
